Data from patent US20140303356A1.

Assays:
[1] = target: CH2-CH3 construct G1-F405L (human); assay: native MS, monomer-dimer equilibrium of CH2-CH3 fragment, homodimer
[2] = target: IgG1Δhinge fragment of IgG1-7D8-K409R; assay: native MS, CH2-CH3 fragment mixed with IgG1Δhinge fragment for 24 hours, heterodimer

CH2-CH3 construct G1-F405L
Kd [1]: 850 nM
Kd [2]: 12 nM
